# Measured values: patent US20260234655A1, “Nuclear Targeted DNA Delivery and Compositions for Use in Practicing the Same” (Seawolf Therapeutics, Inc., priority 2022, published 2026)
# B1: DTS with 3 repeats of UAS: DNA with GFP cassette and DTS of 3 UAS repeats (nucleic acid)
# DNA: CGGAGGACTGTCCTCCGTGAGTCCTAGCGGAGGACTGTCCTCCGTCTTCACAGGCGGAGGACTGTCCTCCG
# modifications: DNA nuclear targeting sequence within DNA carrying a GFP cassette, further chemistry not given here
# notes: DNA with GFP cassette and DTS of 3 UAS repeats
# B2: DTS with 4 repeats of UAS: DNA with GFP cassette and DTS of 4 UAS repeats (nucleic acid)
# DNA: CGGAGGACTGTCCTCCGTGAGTCCTAGCGGAGGACTGTCCTCCGTCTTCACAGGCGGAGGACTGTCCTCCGTAGGGTTCCTCGGAGGACTGTCCTCCG
# modifications: DNA nuclear targeting sequence within DNA carrying a GFP cassette, further chemistry not given here
# notes: DNA with GFP cassette and DTS of 4 UAS repeats
# B3: DTS with 5 repeats of UAS: DNA with GFP cassette and DTS of 5 UAS repeats (nucleic acid)
# DNA: CGGAGGACTGTCCTCCGTGAGTCCTAGCGGAGGACTGTCCTCCGTCTTCACAGGCGGAGGACTGTCCTCCGTAGGGTTCCTCGGAGGACTGTCCTCCGACACTAGAGTCGGAGGACTGTCCTCCG
# modifications: DNA nuclear targeting sequence within DNA carrying a GFP cassette, further chemistry not given here
# notes: DNA with GFP cassette and DTS of 5 UAS repeats
# B4: DTS with 7 repeats of UAS: DNA with GFP cassette and DTS of 7 UAS repeats (nucleic acid)
# DNA: CGGAGGACTGTCCTCCGTGAGTCCTAGCGGAGGACTGTCCTCCGTCTTCACAGGCGGAGGACTGTCCTCCGTAGGGTTCCTCGGAGGACTGTCCTCCGACACTAGAGTCGGAGGACTGTCCTCCGGATAGTATCACGGAGGACTGTCCTCCGAGCAAACGAACGGAGGACTGTCCTCCG
# B5: DTS with 10 repeats of UAS: DNA with GFP cassette and DTS of 10 UAS repeats (nucleic acid)
# DNA: CGGAGGACTGTCCTCCGTGAGTCCTAGCGGAGGACTGTCCTCCGTCTTCACAGGCGGAGGACTGTCCTCCGTAGGGTTCCTCGGAGGACTGTCCTCCGACACTAGAGTCGGAGGACTGTCCTCCGGATAGTATCACGGAGGACTGTCCTCCGAATGGACTAACGGAGGACTGTCCTCCGAGCAAACGAACGGAGGACTGTCCTCCGTACACCGATCCGGAGGACTGTCCTCCGGCGCTCGGCACGGAGGACTGTCCTCCG
# B6: DTS with 2 repeats of TetO: DNA with GFP cassette and DTS of 2 TetO repeats (nucleic acid)
# DNA: CTCGAGTTTACTCCCTATCAGTGATAGAGAACGTATGTCGAGTTTACTCCCTATCAGTGATAGAGAACGATGTCGAGTTTAC
# modifications: DNA nuclear targeting sequence within DNA carrying a GFP cassette, further chemistry not given here
# notes: DNA with GFP cassette and DTS of 2 TetO repeats
# B7: DTS with 3 repeats of TetO: DNA with GFP cassette and DTS of 3 TetO repeats (nucleic acid)
# DNA: CTCGAGTTTACTCCCTATCAGTGATAGAGAACGTATGTCGAGTTTACTCCCTATCAGTGATAGAGAACGATGTCGAGTTTACTCCCTATCAGTGATAGAGAACGTATGTCGAGTTTAC
# modifications: DNA nuclear targeting sequence within DNA carrying a GFP cassette, further chemistry not given here
# notes: DNA with GFP cassette and DTS of 3 TetO repeats
# B8: DTS with 4 repeats of TetO: DNA with GFP cassette and DTS of 4 TetO repeats (nucleic acid)
# DNA: CTCGAGTTTACTCCCTATCAGTGATAGAGAACGTATGTCGAGTTTACTCCCTATCAGTGATAGAGAACGATGTCGAGTTTACTCCCTATCAGTGATAGAGAACGTATGTCGAGTTTACTCCCTATCAGTGATAGAGAACGTATGTCGAGTTTAC
# B9: DTS with 5 repeats of TetO: DNA with GFP cassette and DTS of 5 TetO repeats (nucleic acid)
# DNA: CTCGAGTTTACTCCCTATCAGTGATAGAGAACGTATGTCGAGTTTACTCCCTATCAGTGATAGAGAACGATGTCGAGTTTACTCCCTATCAGTGATAGAGAACGTATGTCGAGTTTACTCCCTATCAGTGATAGAGAACGTATGTCGAGTTTACTCCCTATCAGTGATAGAGAACGTATGTCGAGTTTA
# B10: DTS with 6 repeats of TetO: DNA with GFP cassette and DTS of 6 TetO repeats (nucleic acid)
# DNA: CTCGAGTTTACTCCCTATCAGTGATAGAGAACGTATGTCGAGTTTACTCCCTATCAGTGATAGAGAACGATGTCGAGTTTACTCCCTATCAGTGATAGAGAACGTATGTCGAGTTTACTCCCTATCAGTGATAGAGAACGTATGTCGAGTTTACTCCCTATCAGTGATAGAGAACGTATGTCGAGTTTATCCCTATCAGTGATAGAGAACGTATGTCGAGTTTAC
# B11: DTS with 7 repeats of TetO: DNA with GFP cassette and DTS of 7 TetO repeats (nucleic acid)
# DNA: CTCGAGTTTACTCCCTATCAGTGATAGAGAACGTATGTCGAGTTTACTCCCTATCAGTGATAGAGAACGATGTCGAGTTTACTCCCTATCAGTGATAGAGAACGTATGTCGAGTTTACTCCCTATCAGTGATAGAGAACGTATGTCGAGTTTACTCCCTATCAGTGATAGAGAACGTATGTCGAGTTTATCCCTATCAGTGATAGAGAACGTATGTCGAGTTTACTCCCTATCAGTGATAGAGAACGTATGTCGAGGTAGGCGTGTACGGTGGGAGGCCTATATAAGCAGAGCTCGTTTAGTGAACCGTCAGATCGCCTGGAGAATTCA
# Tested on: growth-arrested HepG2 cells
# Experiment: Number of TFBS repeats in the DTS (TetO, UAS), co-transfection with TetR or Gal4 mRNA in growth-arrested HepG2 cells; GFP intensity
# Type: cell-based
# Conditions: growth-arrested HepG2 cells, 12 h
# Experimental: Co-transfection of DNA and mRNA into HepG2 cells. HepG2 cells were purchased from ATCC and grown in complete media (EMEM+10% fetal bovine serum, ATCC). For co-transfection experiments, cells were seeded at confluence onto collagen coated 384-well plates and cultured for 48 hours in complete media followed by 48 hours in complete media supplemented with […] aphidicolin to prevent cell division. After the outgrowth period, cells were transfected using Lipofectamine3000 (Invitrogen) transfection reagent according to the manufacturer's instructions. RNA and DNA were independently complexed with Lipofectamine3000 in Opti-MEM I (Gibco) for 15 minutes. RNA and DNA complexes were then mixed, followed by 1:10 dilution into complete media supplemented with 0.75 μM aphidicolin. Media was aspirated from the plated HepG2 cells and replaced with the transfection mix. DNA was transfected from 17.5 ng to 4.38 ng per well. mRNA was transfected from 70 ng to 0.07 ng per well. Cells were live-imaged using a 4× objective with a GFP filter set and brightfield at 3-hour intervals for 72 hours using a Cytation5 automated microscope (Agilent) attached to a BioSpa8 automated incubator (Agilent). Gen5IPrime (Agilent) image analysis software was used to quantify the number of GFP cells and GFP Intensity per well.
# In this study, DNAs were engineered to comprise DTSs having different numbers of TFBS repeats for TetR or Gal4, and the impact of multiple sequences assessed in vitro by co-transfection of mRNA encoding TetR or Gal4 NTF. Growth-arrested HepG2 cells were co-transfected with mRNA encoding the NTF protein along with DNA comprising a cognate DTS and a GFP expression cassette. Each NTF mRNA was paired with a cognate DNA in the co-transfection, where the cognate DNA comprised a DTS with varying numbers of cognate TFBS repeats. For example, the TetR mRNA was paired with DNAs comprising DTSs with 2, 3, 4, 5, 6, or 7 repeats of a TetR TFBS (e.g., TetO). Twenty-four hours after transfection, GFP expression was assessed by measuring GFP fluorescence intensity.
# The increase in gene expression appeared to increase with the number of TetO repeats in the DTS, with 7 repeats producing an increase in GFP expression greater than 10-fold at the highest amount of RNA (e.g., 17.5 ng RNA) compared to DNA alone (FIG. 16A).
# The Gal4 mRNA was paired with DNAs comprising DTSs with 1, 2, 3, 4, 5, 7, or 10 repeats of a Gal4 TFBS (e.g., UAS). Twelve hours after transfection, GFP expression was assessed by measuring GFP fluorescence intensity. […] The increase in gene expression appeared to increase with the number of UAS repeats in the DTS up to 5 repeats, while the increase in gene expression appeared saturable as 5, 7, and 10 repeats performed similarly (FIG. 16B). Co-transfection of Gal4 mRNA and DNA comprising a DTS of 5, 7, or 10 repeats produced an increase in GFP expression greater than 10-fold at the highest amount of RNA (e.g., 17.5 ng RNA) compared to DNA alone (e.g., 0 ng RNA) in HepG2 cells (FIG. 16B).
row,Molecule,gene expression over DNA alone on co-transfection with Gal4 mRNA
1,"DTS with 1 repeat of UAS: DNA with GFP cassette and DTS of 1 UAS (Gal4 TFBS) (DNA ACACTAGAGTCGGAGGACTGTCCTCCGTGAGTCCTAG; DNA nuclear targeting sequence within DNA carrying a GFP cassette, further chemistry not given here)",did not substantially increase gene expression
2,"DTS with 2 repeats of UAS: DNA with GFP cassette and DTS of 2 UAS repeats (DNA CGGAGGACTGTCCTCCGTGAGTCCTAGCGGAGGACTGTCCTCCG; DNA nuclear targeting sequence within DNA carrying a GFP cassette, further chemistry not given here)",did not substantially increase gene expression
3,B1,did substantially increase gene expression
4,B2,did substantially increase gene expression
5,B3,did substantially increase gene expression
6,B4,did substantially increase gene expression
7,B5,did substantially increase gene expression

# Same assay, conditions: growth-arrested HepG2 cells, 24 h
row,Molecule,gene expression over DNA alone on co-transfection with TetR mRNA
1,B6,did not substantially increase gene expression
2,B7,did substantially increase gene expression
3,B8,did substantially increase gene expression
4,B9,did substantially increase gene expression
5,B10,did substantially increase gene expression
6,B11,did substantially increase gene expression

# Same assay, conditions: highest amount of RNA (17.5 ng RNA), 24 h
row,Molecule,increase in GFP expression compared to DNA alone on co-transfection with TetR mRNA
1,B11,greater than 10 fold
